From patent US20190234935A1

Biological target: mouse GFRAL (endogenous, wild type mice against Gfral-/- mice) (mouse) (UniProt Q6SJE0)
Test: cell-based or functional assay

mouse GFRAL (endogenous, wild type mice against Gfral-/- mice) (mouse), sequence (Q6SJE0 20-393): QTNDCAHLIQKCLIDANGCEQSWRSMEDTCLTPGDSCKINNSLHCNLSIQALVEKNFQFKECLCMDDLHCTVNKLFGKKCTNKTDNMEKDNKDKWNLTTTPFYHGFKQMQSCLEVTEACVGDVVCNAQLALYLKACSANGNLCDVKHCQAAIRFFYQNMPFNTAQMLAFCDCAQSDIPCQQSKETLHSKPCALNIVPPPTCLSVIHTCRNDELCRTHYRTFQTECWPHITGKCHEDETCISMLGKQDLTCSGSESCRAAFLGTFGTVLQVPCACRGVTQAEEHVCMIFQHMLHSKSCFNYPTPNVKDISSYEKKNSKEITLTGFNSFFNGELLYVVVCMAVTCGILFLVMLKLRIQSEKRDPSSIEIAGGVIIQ

decrease in 12-hour food intake after a single subcutaneous administration of 16 nmol/kg: > 40%
Substance: recombinant human GDF15 (generated by Janssen BioTherapeutics) (from UniProt Q99988 197-308) (ligand)
